According to patent US7585638B2, “Test system for measuring the interaction of STAT 6 with NCoA-1” (Boehringer Ingelheim International GmbH, priority 2001, dated 2009):

B1: His-NCoA-1: His-tagged NCoA-1 fragment aa 212-463, expressed in E. coli, affinity purified, SEQ ID NO: 3 (protein)
chain: MHHHHHHSSGLVPRGSGMKETAAAKFERQHMDSPDLGTDDDDKAMGYLWIQEACQRYEVMQCFTVSQPKSIQEDGEDFQSCLICIARRLPRPPAITGVESFMTKQDTTGKIISIDTSSLRAAGRTGWEDLVRKCIYAFFQPQGREPSYARQLFQEVMTRGTASSPSYRFILNDGTMLSAHTKCKLCYPQSPDMQPFIMGIHIIDREHSGLSPQDDSNSGMSIPRINPSVNPGISPAHGVTRSSTLPPSNNNMVSARVNRQQSSDLNSSSSHTNSSNNQGNFGCSPGNQIVANVALNQGQAGSLEHHHHHH
modifications: His tag

Tests used:
[1] = molecular target: T1, interaction of STAT6 and NCoA-1 (Mus musculus, UniProt P70365); test: GST pull-down assay of [35S]-labeled NCoA-1 with GST-STAT6-TAD in presence of peptides; format: binding, human; settings: 100 μg peptide; 4 μg GST-STAT6-TAD; SDS-PAGE and fluorography
T1 construct: made in house; host or cells: E. coli for GST-STAT6-TAD
Protocol: 4 μg GST or GST-STAT6-TAD fusion protein purified from E. coli, are bound to 20 μl glutathione-Sepharose and are incubated with 1.5 μl [^35S]-labeled NCoA-1 in the presence of 100 μg peptide 1, or peptide 2, or peptide 3 respectively, as indicated. Material bound to the glutathione-Sepharose is recovered from the binding reaction, extensively washed and analyzed by SDS-PAGE and fluorography (lanes 2-6). Input control in lane 1 reflects 10% of the total amount of ^35S-labeled NCoA-1 used in the experiments.

[2] = molecular target: T2, GST-STAT6 (aa 677-847) (Homo sapiens, UniProt P42226); test: STAT6/NCoA-1-ELISA (His-NCoA-1 bound to coated GST-STAT6); format: binding; settings: 500 ng GST-STAT6 (677-847) coated, 250 ng His-NCoA-1 (212-463) added; α-Penta-His and α-mouse-HRP; average of three experiments
T2 construct: made in house; host or cells: E. coli
Protocol: The following is an illustration of how an interaction of STAT6 with NCoA-1 can be performed in order to identify a substance which can modulate said interaction.
Substrate solution: dissolve a phosphate citrate buffer tablet (Sigma) in 100 ml water to obtain 0.05 M phosphate citrate buffer pH 5.5. Dissolve a tablet of o-Phenylendiamine dihydrochloride (Sigma) in 30 ml of phosphate citrate buffer in the dark. Prior to use add 30 μl of 30% H2O2. Recombinant Proteins: GST-STAT6 aa 677-847 and His-tagged NCoA-1 aa 212-463 are expressed in E. coli, purified by affinity-chromatografie and dialyzed against 1×PBS according to the art. Sequences of Recombinant Proteins: GST-STAT6 aa 677-847 protein, SEQ ID NO:1 His-tagged NCoA-1 aa 212-463, SEQ ID NO: 3 Antibodies: 1. Antibody: Penta-His, Quiagen (Cat. No. 34660) 2. […] Determine the optical density of each well within 15 minutes, using an ELISA reader set to […]. […]
500 ng of E. coli expressed and affinity purified GST-STAT6 TAD (amino acid, aa 677-847) is coated to 96 well ELISA-plates as indicated. After incubation with 250 ng of E. coli expressed, affinity purified His-NCoA-1 (aa 212-463), bound protein is detected by mouse anti-His-antibody and peroxidase coupled sheep anti-mouse-antibody as indicated. […] Conversion of peroxidase substrate O-phenylenediamine is measured at 492 nm. […]

T1 sequence (P70365 whole entry): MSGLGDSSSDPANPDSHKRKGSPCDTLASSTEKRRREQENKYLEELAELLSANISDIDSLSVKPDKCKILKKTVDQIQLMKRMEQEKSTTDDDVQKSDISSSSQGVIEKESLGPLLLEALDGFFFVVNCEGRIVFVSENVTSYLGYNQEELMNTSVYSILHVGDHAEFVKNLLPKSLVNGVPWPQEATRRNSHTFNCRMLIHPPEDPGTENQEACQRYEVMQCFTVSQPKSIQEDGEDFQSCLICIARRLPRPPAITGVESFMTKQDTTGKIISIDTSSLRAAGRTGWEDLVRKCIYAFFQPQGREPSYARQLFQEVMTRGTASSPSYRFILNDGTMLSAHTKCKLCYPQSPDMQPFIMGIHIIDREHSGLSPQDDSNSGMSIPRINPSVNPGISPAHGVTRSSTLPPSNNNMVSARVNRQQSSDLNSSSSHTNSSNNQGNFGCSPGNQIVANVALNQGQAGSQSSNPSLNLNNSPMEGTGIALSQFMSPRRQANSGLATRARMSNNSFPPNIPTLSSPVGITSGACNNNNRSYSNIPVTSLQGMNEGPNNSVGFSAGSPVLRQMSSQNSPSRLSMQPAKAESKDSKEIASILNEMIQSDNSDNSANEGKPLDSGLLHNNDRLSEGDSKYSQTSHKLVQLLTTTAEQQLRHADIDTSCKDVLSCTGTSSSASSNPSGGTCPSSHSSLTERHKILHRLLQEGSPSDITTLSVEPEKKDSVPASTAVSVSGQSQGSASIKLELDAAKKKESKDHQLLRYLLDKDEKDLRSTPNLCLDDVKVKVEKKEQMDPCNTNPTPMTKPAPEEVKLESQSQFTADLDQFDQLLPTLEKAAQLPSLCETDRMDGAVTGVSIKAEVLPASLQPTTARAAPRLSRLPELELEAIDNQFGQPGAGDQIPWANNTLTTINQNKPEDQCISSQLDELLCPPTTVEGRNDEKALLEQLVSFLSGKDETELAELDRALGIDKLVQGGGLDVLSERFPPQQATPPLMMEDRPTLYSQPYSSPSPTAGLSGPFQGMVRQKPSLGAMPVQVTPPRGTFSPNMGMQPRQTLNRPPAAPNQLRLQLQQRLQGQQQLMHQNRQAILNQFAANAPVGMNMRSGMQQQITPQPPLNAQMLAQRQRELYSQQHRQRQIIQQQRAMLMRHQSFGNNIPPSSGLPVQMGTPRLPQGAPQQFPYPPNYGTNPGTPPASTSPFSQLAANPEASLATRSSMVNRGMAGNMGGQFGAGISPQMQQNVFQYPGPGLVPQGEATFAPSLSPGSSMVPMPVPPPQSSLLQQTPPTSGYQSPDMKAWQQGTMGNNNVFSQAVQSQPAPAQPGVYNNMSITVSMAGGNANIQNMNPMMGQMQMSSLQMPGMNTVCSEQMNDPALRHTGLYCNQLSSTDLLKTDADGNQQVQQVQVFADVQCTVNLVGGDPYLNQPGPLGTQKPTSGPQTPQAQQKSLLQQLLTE
T2 sequence (P42226 with tags, fused parts or gaps): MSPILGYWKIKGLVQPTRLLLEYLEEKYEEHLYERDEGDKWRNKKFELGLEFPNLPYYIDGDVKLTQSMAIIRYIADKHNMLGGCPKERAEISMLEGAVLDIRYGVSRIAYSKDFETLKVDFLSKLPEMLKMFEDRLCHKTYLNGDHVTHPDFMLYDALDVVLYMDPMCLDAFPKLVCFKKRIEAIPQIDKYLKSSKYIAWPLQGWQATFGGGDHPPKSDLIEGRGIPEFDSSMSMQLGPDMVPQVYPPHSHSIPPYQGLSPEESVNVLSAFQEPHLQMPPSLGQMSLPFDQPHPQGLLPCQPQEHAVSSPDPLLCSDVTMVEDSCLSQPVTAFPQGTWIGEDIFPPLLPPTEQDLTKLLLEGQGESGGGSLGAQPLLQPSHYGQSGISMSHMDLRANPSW

| Molecule | binding of GST-STAT6-TAD with NCoA-1 in presence of peptide [1] | Extinction 493 nm [2] |
| --- | --- | --- |
| peptide 1: peptide derived from the STAT6 trans-activation domain, amino acid 794 to 814, SEQ ID NO: 6, contains LXXLL motif (LLPPTEQDLTKLLLEGQGESG; Part of SEQ ID 5; listed as Homo sapiens) | less binding |  |
| peptide 2: peptide derived from the STAT6 trans-activation domain, amino acid 817 to 830 (SLGAQPLLQPSHYG; UniProt P42226 817-830, looked up, fragment) | does not alter the binding capacity of GST-STAT6-TAD with NCoA-1 significantly |  |
| peptide 3: peptide derived from the STAT6 trans-activation domain, amino acid 830 to 847 (GQSGISMSHMDLRANPSW; UniProt P42226 830-847, looked up, fragment) | does not alter the binding capacity of GST-STAT6-TAD with NCoA-1 significantly |  |
| B1 |  | 0.795 |
